The supplement of paper PMC10126150
± gives the standard deviation of the averaged measurements.

Tested on: ATP
Assay: switch fluorescence ratio, 500 uM ATP over buffer (Cy3 cluster intensity, sum of 5 cycles each) (fold (ratio)); higher = stronger signal-on switching upon ATP binding; sequences stand for … in TCGTCGGCAGCGTCAGATGTGTATAAGAGACAGTTTTTTTTTTTTTTTTTTTTTTTTT…TC
Conditions: aptamer strand: ATP DNA aptamer (quencher-CACCTGGGGGAGTATTGCGGAGGAAGG + anchor), 100 nM annealed; ATP concentration: 500 uM
Outline: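 Clusters carrying Cy3-labelled switching strands on a modified Illumina MiSeq flow-cell were annealed to 100 nM quencher-labelled ATP aptamer and imaged in selection buffer. They were imaged again after 15 min with 500 uM ATP at 22 °C, over five buffer/ATP cycles with NaOH stripping and re-annealing in between. For each cluster, the fluorescence ratio is the summed Cy3 intensity of the target cycles divided by that of the buffer cycles, averaged per switch-domain sequence. Clusters outside 100-1000 RFU were left out.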
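Note: ATP exposure 15 min at 22 °C before imaging.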

| Sequence | switch fluorescence ratio |
| --- | --- |
| AGTTCCGTTT | 0.994 ± 0.022 |
| TTGTGAACTT | 0.9794 ± 0.0046 |
| GAGTATGAGA | 1.009 ± 0.01 |
| TTCTAAGGTC | 0.978 ± 0.036 |
| TAGATTCGTT | 0.9907 ± 0.0071 |
| ACAGGGGGTG | 1.07 ± 0.035 |
| TGGTAGGGAA | 0.982 ± 0.014 |
| CGGTTCATCC | 1.02 ± 0.014 |
| GATGTTTGCG | 0.994 ± 0.034 |
| CGAGCTGCAT | 1.08 ± 0.011 |
| TTTTGGGCCA | 1.04 ± 0.018 |
| TATTGGTGGG | 0.9663 ± 0.008 |
| ATGTTTTTAG | 0.991 ± 0.018 |
| GCGGTAGTAC | 1.14 ± 0.013 |
| TCGTGAGGTG | 1.02 ± 0.068 |
| TGGGTATATT | 0.987 ± 0.011 |
| TTAGGTTCAG | 0.9774 ± 0.0084 |
| TTTAAGGGGA | 0.996 ± 0.013 |
| GTTGGGATGG | 0.991 ± 0.015 |
| GCTCGTTAAA | 1.04 ± 0.1 |
| GATTATTTGA | 0.992 ± 0.061 |
| GTTGGGTCCC | 0.9857 ± 0.0069 |
| TAAATACTCG | 1.25 ± 0.044 |

| Sequence | switch fluorescence ratio |
| --- | --- |
| GCTGTGGGCA | 0.977 ± 0.02 |
| TCCTTTAACG | 1.031 ± 0.0014 |
| GTCTAAACTT | 1.01 ± 0.013 |
| TATGTGAAGG | 0.995 ± 0.015 |
| ACCGTTGGGG | 1.04 ± 0.02 |
| AGAGTATTAA | 0.9824 ± 0.004 |
| TAGAGAATGG | 0.994 ± 0.0086 |
| CAGTAGTCGC | 1.01 ± 0.03 |
| GAGTCAGC | 1.08 ± 0.14 |
| TCAAGTGAGG | 1.01 ± 0.011 |
| TACAGTAGGA | 1.06 ± 0.064 |
| ATATGAATAG | 1.01 ± 0.018 |
| TAATACTTAT | 0.994 ± 0.033 |
| ATTGATTCGG | 0.999 ± 0.014 |
| CGGTGCGGGC | 1 ± 0.09 |
| CAGGAATAGG | 1.03 ± 0.012 |
| TTTGTAAGCC | 1.06 ± 0.011 |
| GATTTTTTAG | 0.998 ± 0.018 |
| TCATGAGGGA | 1.02 ± 0.022 |
| TTTGTGGCAG | 0.991 ± 0.039 |
| AAACATAAGC | 0.991 ± 0.038 |
| CCAATGGTGA | 1.16 ± 0.068 |
| AAGCCTGGAG | 1.02 ± 0.026 |

| Sequence | switch fluorescence ratio |
| --- | --- |
| TTCAAGGATA | 0.986 ± 0.05 |
| TAAACGAAGT | 0.956 ± 0.054 |
| TTAATTTTGT | 1 ± 0.012 |
| AGGGACGCGC | 1.07 ± 0.018 |
| GTTGGTAGGA | 1.01 ± 0.033 |
| TTAGGTGGAG | 0.977 ± 0.031 |
| TGATGGGTC | 0.9961 ± 0.0054 |
| TTTTTCGGCA | 1.31 ± 0.43 |
| TTGTATGAGT | 0.986 ± 0.025 |
| AATTAGTTCG | 0.98 ± 0.02 |
| CAAGGTTTAC | 0.9881 ± 0.00047 |
| ATGGGCTCCG | 0.974 ± 0.015 |
| CCGTTGAGCT | 1.112 ± 0.01 |
| GTTGATAGTA | 0.993 ± 0.031 |
| CTGGAATAGC | 2.21 ± 0.3 |
| ATTATGAGTA | 0.9727 ± 0.0091 |
| TCGTAGGGTT | 1.01 ± 0.04 |
| TTACGGTGAA | 1.07 ± 0.072 |
| ATTAACCAGG | 1.27 ± 0.065 |
| TGGGGCCTTT | 0.9981 ± 0.0045 |
| GCGGCGGCAG | 0.9761 ± 0.0088 |
| ACGCGGCGAT | 1.08 ± 0.026 |
| TTAGGGGTTT | 0.997 ± 0.041 |

| Sequence | switch fluorescence ratio |
| --- | --- |
| GGGCGGACAG | 0.985 ± 0.019 |
| TATGTTAAC | 1.02 ± 0.012 |
| GGAAACCATT | 1.03 ± 0.024 |
| AAGGTATATA | 0.9938 ± 0.0031 |
| CCATATTGTG | 1.02 ± 0.016 |
| TGCATTTATG | 1.02 ± 0.043 |
| AACTAGGGCT | 0.976 ± 0.028 |
| TGCTGCTCGG | 0.973 ± 0.031 |
| TTTGTTACGT | 1.04 ± 0.024 |
| TCGCCGCTAT | 2.61 ± 0.34 |
| TTTCAATCTT | 1.36 ± 0.62 |
| TATACGTGGG | 1.03 ± 0.046 |
| ACTGTTGGCG | 0.965 ± 0.067 |
| TTTGTGCTC | 1.13 ± 0.15 |
| GGTGCCTGGG | 1 ± 0.0011 |
| TGAGTGGATG | 0.971 ± 0.075 |
| TTTATTGGT | 1.01 ± 0.018 |
| TTTATCTTTT | 1 ± 0.028 |
| TCGCGAGTAA | 1.04 ± 0.076 |
| TCGGGGTAAT | 1.03 ± 0.019 |
| AAAGAGGAGA | 1.02 ± 0.023 |
| TGTTCACTTT | 1.04 ± 0.036 |
| TCTTGTCGTT | 1.019 ± 0.0077 |

| Sequence | switch fluorescence ratio |
| --- | --- |
| CGGCCAACGC | 1.17 ± 0.028 |
| TTTGATCGTT | 1.01 ± 0.011 |
| CGGTTGTAGC | 1 ± 0.021 |
| ACGGGATTTC | 1.05 ± 0.028 |
| GATTTAGGTG | 1.12 ± 0.0065 |
| GAGCAATATA | 5.13 ± 1.7 |
| GTGGTGTAAT | 0.992 ± 0.0023 |
| AAGGGGGCGT | 1 ± 0.026 |
| AGCGGGGAGG | 1.03 ± 0.035 |
| TGGAAGTTGG | 0.989 ± 0.023 |
| CGCTTGTTCG | 1.01 ± 0.027 |
| TTATAATTGT | 0.9966 ± 0.0022 |
| AAGGTACCGT | 1.05 ± 0.055 |
| GCTGCTGTTT | 1.01 ± 0.0037 |
| TTGCTTAAAA | 0.9852 ± 0.0095 |
| GTAAAGAGTT | 0.992 ± 0.011 |
| CGTATCCACT | 0.99569 ± 0.00085 |
| TGGCGGTGGT | 0.978 ± 0.017 |
| AAGGTCTATT | 0.998 ± 0.06 |
| GTTTGGGGGC | 1.03 ± 0.043 |
| GAGTTCGTAA | 1.46 ± 0.15 |
| GGGCCATTGG | 1 ± 0.018 |
| TCGAGACTAG | 1.02 ± 0.029 |

| Sequence | switch fluorescence ratio |
| --- | --- |
| TTTCTTGCTG | 1.07 ± 0.047 |
| GCCGGATTGG | 0.956 ± 0.021 |
| GTTTGGCGTA | 0.967 ± 0.015 |
| TGCCAGTGTT | 1.22 ± 0.32 |
| GGGCTTTGAG | 0.979 ± 0.038 |
| TTAGCAGCGC | 1.01 ± 0.055 |
| TGACAGTGAA | 1.01 ± 0.02 |
| GTGATTGGCG | 0.971 ± 0.046 |
| TGGATGTATT | 1.28 ± 0.4 |
| TTATTATTGA | 0.989 ± 0.011 |
| AATCAGCGGT | 1.02 ± 0.028 |
| TTGGAGGGTG | 1.005 ± 0.01 |
| CGCTGGGGGC | 1.03 ± 0.016 |
| GGGTTAGATG | 0.9893 ± 0.0069 |
| AGATTATTTT | 1.01 ± 0.032 |
| GCGAAAAGAA | 1.05 ± 0.054 |
| GGTCTAGACG | 1.01 ± 0.044 |
| TGAGGCCGGG | 1 ± 0.021 |
| TTTGCAAACT | 0.994 ± 0.017 |
| GTTCCCAGGA | 1.09 ± 0.02 |
| TAGGTATTCA | 0.9988 ± 0.0046 |
| TCAATAATCG | 1.01 ± 0.055 |
| TGATTGTTTG | 1.01 ± 0.034 |

| Sequence | switch fluorescence ratio |
| --- | --- |
| GTGATATGGG | 1.02 ± 0.036 |
| ACAGACAGGC | 1.05 ± 0.062 |
| TCCGTGCAAG | 3.03 ± 0.48 |
| GATTAGAAGT | 0.996 ± 0.016 |
| TTTTCATTTG | 1.01 ± 0.034 |
| TCAATTGTAA | 1.05 ± 0.051 |
| GGTGGAGCTA | 1.03 ± 0.015 |
| TCGGTCAGTA | 1.002 ± 0.0036 |
| AAAGGGGTAA | 0.982 ± 0.02 |
| AAATAGACCG | 1 ± 0.0091 |
| CTCGGAACTA | 1.04 ± 0.03 |
| TGGTTACATG | 1.02 ± 0.014 |
| CAAAGGACCT | 1.136 ± 0.0082 |
| AAATCCGCTT | 1.27 ± 0.26 |
| TCATTCTAGG | 1.009 ± 0.0031 |
| TGAGGGGTGG | 0.961 ± 0.038 |
| ACTTGATTGT | 1.02 ± 0.094 |
| TCATGACAGC | 1 ± 0.034 |
| ACTGGTGCAT | 1.04 ± 0.019 |
